From patent US20130203167A1 (SYRACUSE UNIVERSITY, published 2013)

Molecular target: full-length WDR5 (UniProt P61964 2-334)
Test: method not stated; ITC with full-length WDR5 by the Methods

Binder	Kd [nM]
Ac-EHVTGCARSEGFYT-NH2 [Win motif peptide EHVTGCARSEGFYT (SEQ ID NO. 33)]	116
Ac-VNPTGCARSEPKMS-NH2 [Win motif peptide VNPTGCARSEPKMS (SEQ ID NO. 30)]	47
Ac-INPTGCARSEPKIL-NH2 [Win motif peptide INPTGCARSEPKIL (SEQ ID NO. 29)]	78
Ac-LNPHGAARAEVYLR-NH2 [Win motif peptide LNPHGAARAEVYLR (SEQ ID NO. 31)]	52
Ac-EHQTGSARSEGYYP-NH2 [Win motif peptide EHQTGSARSEGYYP (SEQ ID NO. 32)]	415
